Assay [1] concerns the target T1, monkey LAG-3 (full length, on the cell surface) (monkey, UniProt P18627 24-525 (human entry)).
T1 construct: also called HEK293-cLAG-3; monkey LAG-3 protein on the cell surface
T1 chain: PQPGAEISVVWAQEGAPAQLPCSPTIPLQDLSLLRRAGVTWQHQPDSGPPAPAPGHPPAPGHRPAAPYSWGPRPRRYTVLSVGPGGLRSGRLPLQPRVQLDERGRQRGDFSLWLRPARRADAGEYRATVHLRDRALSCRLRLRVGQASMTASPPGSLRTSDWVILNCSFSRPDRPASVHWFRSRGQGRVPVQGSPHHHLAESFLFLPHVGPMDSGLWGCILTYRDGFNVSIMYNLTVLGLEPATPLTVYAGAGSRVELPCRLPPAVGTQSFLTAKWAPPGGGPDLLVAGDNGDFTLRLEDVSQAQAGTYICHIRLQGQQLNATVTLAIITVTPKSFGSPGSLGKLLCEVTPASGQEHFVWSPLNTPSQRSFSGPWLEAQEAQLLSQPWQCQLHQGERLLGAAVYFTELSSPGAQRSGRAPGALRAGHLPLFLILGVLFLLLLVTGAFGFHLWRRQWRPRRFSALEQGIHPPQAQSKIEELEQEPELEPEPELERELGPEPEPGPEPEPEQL
The experiment in a line: FACS, HEK293-cLAG-3; 1.600 nM. The source says:
(§1) The pIRES plasmid with the monkey-derived full-length gene was transfected into the HEK293 cell line to construct a HEK293 stable cell line containing monkey LAG-3 (herein referred to as HEK293-cLAG-3 stable cell line). The HEK293-hLAG-3 stable cell line and HEK293-cLAG-3 stable cell line were expanded in a T-75 cell culture flask to a 90% confluence. The medium was aspirated, and the cells were washed with HBSS (Hanks' Balanced Salt Solution) 1-2 times, then treated with a enzyme-free cell dissociation fluid (Versene solution: Life technology) and the cells were collected. The cells were washed with HBSS buffer for 1-2 times. After counted, the cells were diluted with HBSS to 1-2×10⁶ cells per ml, added with 1% goat serum blocking solution, incubated on ice for 20-30 minutes, and then washed with HBSS for 2 times by centrifugation. The collected cells were suspended in the FACS buffer (HBSS+1% BSA) to 2×10⁶ cells/ml, added as 100 microliters per well to a 96-well FACS reaction plate, added with 100 microliters per well of the antibody sample to be tested, incubated on ice for 1-2 hours. The plate was washed twice with the FACS buffer by centrifugation, added with 100 microliters of fluorescent (Alexa 488)-labeled secondary antibodies per well, and incubated on ice for 0.5-1.0 hours. The plate was washed 2-3 times with FACS buffer by centrifugation, added with 100 μl fixative solution (4% Paraformaldehyde) per well to suspend the cells. 5-10 minutes later, it was washed 1-2 times with FACS buffer by centrifugation. The cells were suspended with 100 microliters of FACS buffer, FACS (FACSCalibur, BD) was used for detection and the results were analyzed.
Background: Flow cytometry measures light scatter and fluorescence of single cells or particles in a stream.

Assay [2] concerns the target T2, human LAG-3 (full length, on the cell surface) (human, UniProt P18627 23-525).
T2 construct: Full-length human LAG-3 expressed on cells; also called HEK293-hLAG-3; HEK293 cells transfected with LAG-3 gene
T2 sequence: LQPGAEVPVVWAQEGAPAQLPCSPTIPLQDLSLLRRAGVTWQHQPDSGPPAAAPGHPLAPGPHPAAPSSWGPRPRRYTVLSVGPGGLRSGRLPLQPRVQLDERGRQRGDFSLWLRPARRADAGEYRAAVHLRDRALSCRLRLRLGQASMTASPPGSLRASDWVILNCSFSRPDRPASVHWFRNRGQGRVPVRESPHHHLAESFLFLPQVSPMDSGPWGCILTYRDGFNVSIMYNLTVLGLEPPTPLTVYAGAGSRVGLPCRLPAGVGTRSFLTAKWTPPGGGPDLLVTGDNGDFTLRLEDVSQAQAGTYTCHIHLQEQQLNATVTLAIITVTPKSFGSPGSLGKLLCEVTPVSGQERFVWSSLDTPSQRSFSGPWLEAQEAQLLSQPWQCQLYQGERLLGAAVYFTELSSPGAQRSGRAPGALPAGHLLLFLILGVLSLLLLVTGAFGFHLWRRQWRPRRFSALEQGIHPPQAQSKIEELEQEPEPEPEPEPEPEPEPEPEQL
As to the kind of experiment: FACS, HEK293-hLAG-3; 0.064 nM.
From the text: as §1

Assay [3] has as its target T3, human LAG-3 protein with hFc tag (hLAG-3-hFc protein) (human, UniProt P18627 23-450).
T3 construct: also called immunogen 1; LAG-3 extracellular domain protein; not shown: human IgG Fc fragment (hFc) of the pCpC vector
T3 sequence: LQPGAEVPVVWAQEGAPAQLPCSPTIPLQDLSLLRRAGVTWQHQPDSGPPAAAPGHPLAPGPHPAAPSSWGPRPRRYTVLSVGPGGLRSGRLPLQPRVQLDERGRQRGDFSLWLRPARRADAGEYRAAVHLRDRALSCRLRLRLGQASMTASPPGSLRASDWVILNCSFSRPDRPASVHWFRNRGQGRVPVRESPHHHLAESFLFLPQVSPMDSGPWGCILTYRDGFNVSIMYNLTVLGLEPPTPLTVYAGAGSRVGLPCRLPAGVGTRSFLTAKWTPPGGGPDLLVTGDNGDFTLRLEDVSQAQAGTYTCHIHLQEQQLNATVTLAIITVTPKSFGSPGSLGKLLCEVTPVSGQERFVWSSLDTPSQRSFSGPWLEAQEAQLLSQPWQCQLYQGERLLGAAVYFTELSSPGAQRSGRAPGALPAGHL
As to the kind of experiment: FACS, blocks LAG-3-hFc binding to MHC II on Raji; 200.000 nM. How it is done:
The FACS reaction plate incubating the Raji cells was centrifuged to discard the supernatant. The above mixture was added as 100 μl per well to Raji cells and incubated on ice for 1-2 hours. The plate was washed twice with blocking solution (PBS, 2% fetal bovine serum) by centrifugation, added with 100 microliters of fluorescent (Alexa 488)-labeled secondary antibodies per well, and incubated on ice for 1.0 hours. The plate was washed 2-3 times by centrifugation with blocking solution (PBS, 2% fetal bovine serum), added with 100 microliters of PBS per well to suspend cells, and detected using FACS (FACS Calibur, BD) and the results were analyzed. Wherein, the IgG control was murine IgG, and the data in the table is the inhibition rate (%).

The target of assay [4] is T1, monkey LAG-3 (full length, on the cell …). The experiment in a line: FACS, HEK293-cLAG-3; 8.000 nM.
From the text: as §1

Assay [5] shares this target. As to the kind of experiment: FACS, HEK293-cLAG-3; 0.013 nM.
From the text: as §1

For assay [6] the target is unchanged. The experiment in a line: FACS, HEK293-cLAG-3; 0.064 nM.
From the text: as §1

Positions count from the first letter of the chain named.

B1: 405B8H3 (mouse antibody purified from hybridoma) (antibody, V domains shown)
VH: QVQLQQSGAELVRPGASVTLSCKASGYTFTDYEMHWVKQTPVHGLEWIGATDPETGNSAYNQKFKGKAIMTADKSSSTAYMELRSLTSEDSAVYYCISTGWNDWGQGTSLTVSS
VL: DIKMTQSPSSMYASLGERVTITCKASQDINSYLSWFQQKPGKSPKTLIYRADRLLDGVPSRFSGSGSGQDYSLTISSLEYGDMGIYYCLQYDEFPYTFGGGTKLEIK
notes: also called mAb103-405B8H3; 405B81-13
Consider B1, for which the Mean fluorescence intensity in assay [1] was 23 MFI; in assay [2], 8.7 MFI; in assay [4], 61.4 MFI; in assay [5], 4.2 MFI; in assay [6], 4.9 MFI. Moreover, the “Inhibition rate (%)” value in assay [3] turned out to be 93.9%.

B2: 105F1E10 (mouse antibody purified from hybridoma) (antibody, V domains shown)
VH: EVQLQQSGPELVKPGASVKMSCRASGYTFTDFKMHWMKQSHGKSLEWIGYIAPNNGGTAYNQKFRGKATLTVNESSNTAYMELRSLTSEDSAVYYCVDWDDVDYWGQGTTLTVSS
VL: B1 VL with P40S, D52N, L55V, G81E, D92V, Y96L, G100A, I106L
notes: also called mAb009-105F1E10
As to B2, the Mean fluorescence intensity is 15.4 MFI in assay [1]; 8.6 MFI in assay [2]; 44.6 MFI in assay [4]; 4.1 MFI in assay [5]; 4.5 MFI in assay [6]. Also, the “Inhibition rate (%)” value in assay [3] is 93.1%.

B3: 409D4E10 (mouse antibody purified from hybridoma) (antibody, V domains shown)
VH: B1 VH with Y27N, G56D, S58T, M70L, A72T, S98T, T99S
VL: B1 VL with D52N, G81E, D92N
notes: also called mAb112-409D4E10
On to B3, for which the Mean fluorescence intensity in assay [1] was found to be 36.1 MFI; in assay [2], 4.9 MFI; in assay [4] it was 93.8 MFI; in assay [5], 3.5 MFI; in assay [6] it was 4.7 MFI. Further, the “Inhibition rate (%)” value in assay [3] amounted to 95.9%.

B4: 409B11E12 (mouse antibody purified from hybridoma) (antibody, V domains shown)
VH: B1 VH with P41T, G56S, N57Y, M70L, S98A
VL: B1 VL with I2L, D52N, G81E
notes: also called mAb104-409B11E12
Take B4: the Mean fluorescence intensity in assay [1] was found to be 24.4 MFI; in assay [2] it was 5 MFI; in assay [4] it was 69.9 MFI; in assay [5] it was 3.3 MFI; in assay [6] it was 4.2 MFI. Besides, in assay [3], the “Inhibition rate (%)” value amounted to 95%.

B5: 556F6B8 (mouse antibody purified from hybridoma) (antibody, V domains shown)
VH: RVQLKQSGPGLVQPSQSLSITCTVSGFSLIKYGVHWVRQSPGEGLEWLGVIWRGGITDYNAAFMSRLSITKDNSKSQVFFKMNSLQADDTAIYYCAKWDGPLAMDYWGQGTSVTVSS
VL: DIVMTQSHKFLSTSVGDRVSITCKASQDVGTTVAWYQQKPGQSPKLLIYWASTRHTGVPDRFTGSGSGTDFTLTISNVQSEDLADYFCQQYSSYPYTFGGGTKLEIK
notes: also called mAb123-556F6B8
For B5, the Mean fluorescence intensity worked out at 24.2 MFI in assay [1]; 6.8 MFI in assay [2]; 46.7 MFI in assay [4]; 3.9 MFI in assay [5]; 5.1 MFI in assay [6]. The “Inhibition rate (%)” value in assay [3] came out at 96%.

(Values after US20210155689A1 (SHANGHAI PHARMAEXPLORER, published 2021).)
